Data on seven molecules can be found in patent US20240092888A1 (AULOS BIOSCIENCE, published 2024).

Test [1] has as its target T1, BDG17.023-hIL-2 complex (human, UniProt P60568 21-153).
T1 construct: BDG17.023 (human IgG1 chimera) on the SPR chip saturated with 50 nM hIL-2; also called BDG17.023-IL-2 complex; Ab-IL-2 complex
Description: SPR, BDG17.023 on the CM5 chip loaded with 50 nM hIL-2, CD122 then CD25 1000 nM. On the procedure: To test specific binding to CD25, BDG17.023 was immobilized to the CM5 chip to a target RU of approximately 300 RU as described above. Subsequently, 50 nM IL-2 was injected till the BDG17.023 or control antibody were saturated. Then the Ab-IL-2 complex was washed with PBS-T buffer for 10 sec and 1000 nM of CD25 was injected and monitored for response.
To test specific binding to CD122, BDG17.023 was immobilized to the CM5 chip to a target RU of approximately 300 RU-500 RU as described above. Subsequently, 50 nM hIL-2 was injected till the BDG17.023 antibody was saturated with hIL-2. Next the Ab-IL-2 complex was washed with PBS-T buffer for 10 sec and 1000 nM of CD122 was injected and response was monitored.

Test [2] addresses T2, BDG17.054 complexed with hIL-2 (human, UniProt P60568 21-153).
T2 construct: Humanized IgG1 captured on the SPR chip and saturated with 50 nM hIL-2; also called BDG17.054/hIL-2
Description: SPR, captured BDG17.054 loaded with 50 nM hIL-2, CD25 injected before CD122 and again after CD122. The source says: (§1) FIGS. 17A-17B. Present receptor discrimination of indicated antibody/IL-2 complex by tracing of SPR response. Antibody was immobilized to the CM5 chip, and hIL-2, CD122, and CD25 were streamed as indicated with an arrow. FIG. 17A presents a schematic order of injection of compounds to SPR chip, that represents sequential anti-IL-2 antibodies complexed with human IL-2 (hIL2), binding to CD122 but not to CD25.
(§2) To test specific binding of the humanized antibodies IL-2 complex to CD122 and CD25, antibodies BDG17.038, BDG17.043, BDG17.053, BDG17.054, BDG17.067, BDG17.069 (See, Tables 6 and 7 of Example 2 for sequence information for these clones) were immobilized to an a capture antibody attached to CM5 chip channel to a target RU of approximately 300 RU as described above. Subsequently, 50 nM IL-2 was injected till the respective antibody was saturated with hIL-2. Then the Ab-IL-2 complex was washed with PBS-T buffer for 60 sec and 1000 nM of CD25 was injected and monitored for response. Subsequently, running buffer was injected for 60 seconds to reach a steady baseline, and then 1000 nM of CD122 was injected for 30 seconds in a flow rate of 30 ul/min. To test CD122 binding, the same experiment was repeated in reverse order, with CD122 injected first flowed by injection of CD25.
(Surface plasmon resonance follows binding to a sensor surface in real time, without labels.)

Test [3] deals with T3, BDG17.038 complexed with hIL-2 (human, UniProt P60568 21-153).
T3 construct: Humanized IgG1 captured on the SPR chip and saturated with 50 nM hIL-2; also called BDG17.038/hIL-2
T3 sequence (VH, as listed by the source limits assumed, chain 1 of 3): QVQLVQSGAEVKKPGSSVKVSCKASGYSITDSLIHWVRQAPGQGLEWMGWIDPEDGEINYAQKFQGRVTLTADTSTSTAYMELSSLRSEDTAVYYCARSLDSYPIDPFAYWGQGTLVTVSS
T3 sequence (VL, as listed by the source limits assumed, chain 2 of 3): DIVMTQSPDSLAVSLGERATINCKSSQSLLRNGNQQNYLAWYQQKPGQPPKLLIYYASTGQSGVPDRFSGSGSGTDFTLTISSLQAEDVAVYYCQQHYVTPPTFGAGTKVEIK
T3 sequence (P60568 21-153 limits assumed, chain 3 of 3): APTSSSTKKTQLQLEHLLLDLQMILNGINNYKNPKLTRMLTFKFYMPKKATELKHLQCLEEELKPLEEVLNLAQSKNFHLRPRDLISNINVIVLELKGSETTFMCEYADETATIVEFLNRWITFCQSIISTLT
Description: SPR, captured BDG17.038 loaded with 50 nM hIL-2, CD25 injected before CD122.
Excerpt: as §1

Test [4] concerns the target T4, BDG17.066 complexed with hIL-2 (human, UniProt P60568 21-153).
T4 construct: Humanized IgG1 LALA on the SPR chip saturated with hIL-2
Description: SPR, captured BDG17.066 loaded with hIL-2, CD25 injected before CD122 and again after CD122.
Excerpt: as §1

The target of test [5] is T5, BDG17.067 complexed with hIL-2 (human, UniProt P60568 21-153).
T5 construct: Humanized IgG1 LALA captured on the SPR chip and saturated with 50 nM hIL-2; also called BDG17.0067 complexed with hIL-2
T5 sequence (heavy, as listed by the source limits assumed, chain 1 of 3): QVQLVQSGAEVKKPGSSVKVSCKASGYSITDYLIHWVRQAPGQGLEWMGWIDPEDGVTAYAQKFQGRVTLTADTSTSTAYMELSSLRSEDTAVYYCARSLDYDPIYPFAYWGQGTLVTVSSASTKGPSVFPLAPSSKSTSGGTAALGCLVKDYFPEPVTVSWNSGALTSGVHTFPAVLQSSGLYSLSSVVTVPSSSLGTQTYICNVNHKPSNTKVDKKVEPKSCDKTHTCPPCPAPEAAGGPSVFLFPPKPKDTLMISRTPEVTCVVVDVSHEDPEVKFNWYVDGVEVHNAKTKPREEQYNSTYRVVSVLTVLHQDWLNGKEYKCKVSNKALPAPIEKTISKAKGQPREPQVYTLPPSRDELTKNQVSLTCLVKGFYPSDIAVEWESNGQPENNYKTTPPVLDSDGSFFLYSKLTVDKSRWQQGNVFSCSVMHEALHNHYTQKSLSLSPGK
T5 sequence (light, as listed by the source limits assumed, chain 2 of 3): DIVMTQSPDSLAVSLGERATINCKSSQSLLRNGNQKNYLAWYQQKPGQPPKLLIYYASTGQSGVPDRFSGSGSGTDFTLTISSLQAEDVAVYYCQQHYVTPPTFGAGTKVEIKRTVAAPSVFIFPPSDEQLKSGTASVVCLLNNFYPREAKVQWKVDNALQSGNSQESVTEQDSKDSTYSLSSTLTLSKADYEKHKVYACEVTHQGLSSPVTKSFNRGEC
T5 sequence (P60568 21-153 limits assumed, chain 3 of 3): as the sequence (P60568 21-153 limits assumed, chain 3 of 3) above
Description: SPR, captured BDG17.067 loaded with hIL-2, CD25 injected before CD122 and again after CD122.
Excerpt: as §1, §2

The target in test [6] is T6, BDG17.043 complexed with hIL-2 (human, UniProt P60568 21-153).
T6 construct: Humanized IgG1 captured on the SPR chip and saturated with 50 nM hIL-2; also called BDG17.043/hIL-2
T6 sequence (VH, as listed by the source limits assumed, chain 1 of 3): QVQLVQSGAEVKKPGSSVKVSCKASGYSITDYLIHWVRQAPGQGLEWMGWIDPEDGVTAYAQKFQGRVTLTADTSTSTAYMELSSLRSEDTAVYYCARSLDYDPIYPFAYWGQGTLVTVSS
T6 sequence (VL, as listed by the source limits assumed, chain 2 of 3): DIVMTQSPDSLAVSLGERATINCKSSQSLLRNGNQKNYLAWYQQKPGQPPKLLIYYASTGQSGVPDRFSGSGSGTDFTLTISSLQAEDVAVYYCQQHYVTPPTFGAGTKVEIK
T6 sequence (P60568 21-153 limits assumed, chain 3 of 3): as the sequence (P60568 21-153 limits assumed, chain 3 of 3) above
Description: SPR, captured BDG17.043 loaded with 50 nM hIL-2, CD25 injected before CD122.
Excerpt: as §1

Test [7] addresses T7, BDG17.053 complexed with hIL-2 (human, UniProt P60568 21-153).
T7 construct: Humanized IgG1 captured on the SPR chip and saturated with 50 nM hIL-2
Description: SPR, captured antibody saturated with 50 nM hIL-2, then CD25 and CD122 injected in both orders. As for the experimental part:
as §2

Test [8] has as its target T8, BDG17.069 complexed with hIL-2 (human, UniProt P60568 21-153).
T8 construct: Humanized IgG1 LALA captured on the SPR chip and saturated with 50 nM hIL-2
Description: SPR, captured BDG17.069 loaded with hIL-2, CD25 injected before CD122 and again after CD122.
Excerpt: as §1

In test [9] the target is T9, human IL-2 (human, UniProt P60568 21-153).
T9 construct: SPR used Reprokine human IL-2; the result sentences say only hIL-2 or labeled human IL-2, so the same molecule is used here; also called hIL-2; recombinant human IL-2
T9 sequence (P60568 21-153 limits assumed): as the sequence (P60568 21-153 limits assumed, chain 3 of 3) above
As to the kind of experiment: yeast surface display flow cytometry, 0.1 nM hIL-2, MFI normalized to expression.

Test [10] addresses T9, human IL-2. As to the kind of experiment: yeast surface display, selection against human IL-2.

Residue numbers refer to the chain shown, from its start.

T4 sequence (heavy, as listed by the source limits assumed, chain 1 of 3): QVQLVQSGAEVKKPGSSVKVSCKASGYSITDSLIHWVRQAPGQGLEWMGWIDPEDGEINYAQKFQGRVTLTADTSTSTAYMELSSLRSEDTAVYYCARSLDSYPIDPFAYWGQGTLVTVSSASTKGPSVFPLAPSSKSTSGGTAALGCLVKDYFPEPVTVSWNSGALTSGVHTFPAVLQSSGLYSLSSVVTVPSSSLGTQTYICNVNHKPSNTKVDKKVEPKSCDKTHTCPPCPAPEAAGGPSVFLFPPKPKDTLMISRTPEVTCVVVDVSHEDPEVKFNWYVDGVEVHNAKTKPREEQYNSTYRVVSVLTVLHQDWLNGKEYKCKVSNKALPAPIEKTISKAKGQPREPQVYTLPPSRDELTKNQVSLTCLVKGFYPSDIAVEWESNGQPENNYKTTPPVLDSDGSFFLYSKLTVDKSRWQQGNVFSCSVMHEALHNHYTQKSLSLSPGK
T4 sequence (light, as listed by the source limits assumed, chain 2 of 3): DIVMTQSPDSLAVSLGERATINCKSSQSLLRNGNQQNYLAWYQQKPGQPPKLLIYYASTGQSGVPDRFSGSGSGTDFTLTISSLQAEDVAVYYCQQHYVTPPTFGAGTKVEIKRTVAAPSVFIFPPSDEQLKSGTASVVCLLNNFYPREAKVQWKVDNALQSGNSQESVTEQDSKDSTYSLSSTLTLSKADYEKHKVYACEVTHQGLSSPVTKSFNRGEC
T4 sequence (P60568 21-153 limits assumed, chain 3 of 3): as the sequence (P60568 21-153 limits assumed, chain 3 of 3) above
T8 sequence (heavy, as listed by the source limits assumed, chain 1 of 3): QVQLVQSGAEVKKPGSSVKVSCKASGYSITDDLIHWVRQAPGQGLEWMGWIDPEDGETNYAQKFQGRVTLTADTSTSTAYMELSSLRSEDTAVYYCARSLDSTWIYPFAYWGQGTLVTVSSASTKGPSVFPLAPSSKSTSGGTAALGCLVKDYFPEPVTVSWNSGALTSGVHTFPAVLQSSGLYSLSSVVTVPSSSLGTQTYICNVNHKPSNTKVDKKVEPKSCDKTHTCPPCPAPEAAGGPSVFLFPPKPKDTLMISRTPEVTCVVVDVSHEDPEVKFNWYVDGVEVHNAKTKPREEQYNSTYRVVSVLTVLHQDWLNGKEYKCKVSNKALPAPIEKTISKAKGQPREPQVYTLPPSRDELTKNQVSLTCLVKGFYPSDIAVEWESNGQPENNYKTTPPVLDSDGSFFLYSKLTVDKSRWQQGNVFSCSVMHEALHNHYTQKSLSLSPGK
T8 sequence (light, as listed by the source limits assumed, chain 2 of 3): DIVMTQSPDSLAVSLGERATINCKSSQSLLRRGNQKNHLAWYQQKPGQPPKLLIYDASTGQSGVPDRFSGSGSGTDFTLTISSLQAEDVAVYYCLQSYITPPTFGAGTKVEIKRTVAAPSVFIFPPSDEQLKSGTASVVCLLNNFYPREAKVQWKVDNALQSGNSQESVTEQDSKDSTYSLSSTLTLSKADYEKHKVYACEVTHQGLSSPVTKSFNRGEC
T8 sequence (P60568 21-153 limits assumed, chain 3 of 3): as the sequence (P60568 21-153 limits assumed, chain 3 of 3) above
T7 sequence (VH, as listed by the source limits assumed, chain 1 of 3): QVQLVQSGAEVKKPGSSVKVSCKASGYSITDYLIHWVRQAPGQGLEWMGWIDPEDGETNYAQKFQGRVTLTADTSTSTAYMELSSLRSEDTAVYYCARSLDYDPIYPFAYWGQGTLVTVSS
T7 sequence (VL, as listed by the source limits assumed, chain 2 of 3): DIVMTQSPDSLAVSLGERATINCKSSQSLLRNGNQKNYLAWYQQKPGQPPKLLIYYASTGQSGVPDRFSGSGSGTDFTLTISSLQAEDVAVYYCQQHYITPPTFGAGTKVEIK
T7 sequence (P60568 21-153 limits assumed, chain 3 of 3): as the sequence (P60568 21-153 limits assumed, chain 3 of 3) above
T2 sequence (VH, as listed by the source limits assumed, chain 1 of 3): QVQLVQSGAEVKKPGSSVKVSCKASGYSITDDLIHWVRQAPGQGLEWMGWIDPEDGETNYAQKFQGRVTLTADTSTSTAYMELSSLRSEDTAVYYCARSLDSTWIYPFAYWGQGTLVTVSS
T2 sequence (VL, as listed by the source limits assumed, chain 2 of 3): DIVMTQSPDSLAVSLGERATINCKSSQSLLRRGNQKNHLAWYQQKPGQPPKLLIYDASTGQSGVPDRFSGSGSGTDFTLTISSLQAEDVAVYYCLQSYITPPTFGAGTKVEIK
T2 sequence (P60568 21-153 limits assumed, chain 3 of 3): as the sequence (P60568 21-153 limits assumed, chain 3 of 3) above
T1 sequence (P60568 21-153 limits assumed, one chain of several): as the sequence (P60568 21-153 limits assumed, chain 3 of 3) above

B1: human CD25 (receptor, UniProt P01589 22-240, looked up)
chain: ELCDDDPPEIPHATFKAMAYKEGTMLNCECKRGFRRIKSGSLYMLCTGNSSHSSWDNQCQCTSSATRNTTKQVTPQPEEQKERKTTEMQSPMQPVDQASLPGHCREPPPWENEATERIYHFVVGQMVYYQCVQGYRALHRGPAESVCKMTHGKTRWTQPQLICTGEMETSQFPGEEKPQASPEGRPESETSCLVTTTDFQIQTEMAATMETSIFTTEYQ
notes: also called IL-2R alpha
Consider B1, for which the binding result in test [1] is recorded as “no binding (tested: 1000 nM)”; in [2], “no binding (tested: 1000 nM)”; in test [3], “no binding (tested: 1000 nM)”; in test [4], “no binding”; in test [5], “no binding”; in test [6], “no binding”. For the same molecule, the binding result in test [7] was “no binding (tested: 1000 nM CD25)”; in test [8], “no binding”.

B2: clone 2 (17.022) scFv, yeast surface display clone (scFv)
scFv: EIQLQQSGPELRRPGSSVKLSCKASGYNITDYLIHWVRHRPEHGLEWIGWIDPEDGETRYAQKFQSKATLTADTSSNAAYMQLSSLTPEDTATYFCARSLDSTWIYPFAYWGQGTLVTVSSGGGGSGGGGSGGGGSDIVMTQSPFSLAVSEGEMVTINCKSSQSLLRSGNQKNYLAWYQQKPGQSPKLLIYYASTGQSGVPDRFIGSGSGTDFTLTISDVQAEDLADYYCLQHYITPPTFGAGTKLELK
B2: in test [9], the binding result is listed as “binds”.

B3: clone C #7 (173R5C1-17.002) (scFv)
scFv: B2 scFv with W104P
notes: Yeast surface display clone from the JES6.1 scFv library
Take B3: in [10], the binding result is recorded as “binds”.

B4: clone 5 (17.030) scFv, yeast surface display clone (scFv)
scFv: B2 scFv with W104Y, I105D, T236S
Take B4: the binding result in [9] is “binds”.

B5: clone 6 (17.035) scFv, yeast surface display clone (scFv)
scFv: B2 scFv with W104Y, I105N, Y234W, T236S
In the case of B5, in [9], the binding result is “binds”.

B6: clone 4 (17.023) scFv, yeast surface display clone (scFv)
scFv: B2 scFv with S99Q, W104Y
In the case of B6, the binding result in test [9] is listed as “binds”.

B7: clone 1 (17.021) scFv, yeast surface display clone (scFv)
scFv: B2 scFv with Y32N, W104Y, I235Q, T236S
With B7, the binding result in test [9] is recorded as “binds”.
